Data as given in US20240360189A1.

Key:
[1] = molecular target: FcγRIIIA (CD16) (human) (UniProt P08637); test: cell-based or functional assay
[2] = molecular target: CD20 on Daudi lymphoma cells (UniProt P11836); test: flow cytometry on Daudi cells, goat anti-human Fc AF647; matched Fc density chosen for the comparison of C3b deposition, concentration not given
Chain of CD20 on Daudi lymphoma cells (P11836 whole entry): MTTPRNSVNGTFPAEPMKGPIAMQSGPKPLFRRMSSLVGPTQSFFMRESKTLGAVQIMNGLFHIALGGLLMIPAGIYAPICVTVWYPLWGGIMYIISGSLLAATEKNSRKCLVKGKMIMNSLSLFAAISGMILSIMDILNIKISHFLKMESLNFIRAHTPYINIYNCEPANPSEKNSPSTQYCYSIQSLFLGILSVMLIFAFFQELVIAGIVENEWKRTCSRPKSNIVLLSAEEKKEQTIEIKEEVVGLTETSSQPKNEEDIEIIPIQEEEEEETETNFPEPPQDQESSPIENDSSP

Chain of FcγRIIIA (CD16) (human) (P08637 17-254): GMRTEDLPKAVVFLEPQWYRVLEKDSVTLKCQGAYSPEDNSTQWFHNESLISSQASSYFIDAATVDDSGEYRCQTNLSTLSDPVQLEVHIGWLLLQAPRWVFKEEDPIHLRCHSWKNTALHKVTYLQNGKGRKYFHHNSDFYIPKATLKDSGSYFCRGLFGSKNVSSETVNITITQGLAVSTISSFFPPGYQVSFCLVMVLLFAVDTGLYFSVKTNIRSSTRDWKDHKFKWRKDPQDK

percentage of phagocytic macrophages, Daudi targets, absence of complement (ADCP) [1]: 8.6%
percentage of phagocytic macrophages, Daudi targets, presence of complement (ADCP+CDCP) [1]: 24.1%
MFI anti-Fc [2]: 12200 MFI
Substance: MabThera (rituximab, RTX) (antibody)
